For test [1], the target named is T1, INCENP N-terminal domain (1-58), His- and Avi-tagged, biotinylated (UniProt Q9NQS7 1-58, biotinylated (Avi-tag, co-expressed E. coli biotin ligase BirA)).
T1 construct: range 1-58; Expressed in E. coli BL21(DE3); also called INC-N; INCENP N-terminal domain (AA 1-58); not shown: His-tag and Avi-tag
T1 sequence (looked up): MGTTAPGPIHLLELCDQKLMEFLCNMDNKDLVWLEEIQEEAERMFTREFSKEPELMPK
In words: western blot, recombinant INC-N on SDS-PAGE / PVDF, INC-N-16 Fab as primary, anti-human F(ab')2 IgG-HRP secondary. As to the method: (§1) Membranes were stained with Ponceau S dye to verify correct transfer of the proteins, were briefly washed with ddH2O and blocked with 4% skimmed milk in TBS-T containing 0.05% Tween20 for 30 min. at RT on the shaker. […] Membranes were washed 3 times with TBS-T and incubated with secondary anti-human FAB′2 specific HRP-conjugated IgG (diluted 1:10,000 in blocking buffer) for 45 minutes at RT, shaking. Membranes were washed again 3× with TBS-T, developed with ECL chemiluminescent substrate and visualized with the Biorad imaging instrument (FIG. 11).
A general note: In western blotting, separated proteins are transferred to a membrane and probed.

The target of test [2] is T2, INCENP FL (Homo sapiens, UniProt Q9NQS7).
T2 construct: full length, denatured on SDS-PAGE and blotted; also called full-length INCENP in HeLa cell lysate
In words: western blot, HeLa cell lysate on SDS-PAGE / PVDF, INC-N-16 Fab as primary, anti-human F(ab')2 IgG-HRP secondary. As to the method:
as §1

B1: INC-N-16 Fab (Fab, V domains shown)
VH: EVQLVESGGGLVQPGGSLRLSCAASGFNFYSSSIHWVRQAPGKGLEWVASIYPYSGYTSYADSVKGRFTISADTSKNTAYLQMNSLRAEDTAVYYCARAWIYAMDYWGQGTLVTVSS
VL: DIQMTQSPSSLSASVGDRVTITCRASQSVSSAVAWYQQKPGKAPKLLIYSASSLYSGVPSRFSGSRSGTDFTLTISSLQPEDFATYYCQQWDQWLITFGQGTKVEIKR
Turning to B1, the binding result in test [1] and in test [2] was “binds” in each case.

Source of the values: US20240408138A1 (UNIVERSITY OF CHICAGO, published 2024).
